Results published in US20150175697A1 (MacroGenics, published 2015).

Columns and labels:
[1] = target: soluble CD16A (sCD16A) (human) (UniProt P08637); experiment: SPR (BIAcore), receptor immobilised
[2] = target: T1, human serum albumin (HSA) (human, UniProt P02768 25-609); experiment: Albumin Binding Assay; x axis hE16scFv-ABD Concentration (ug/ml); albumin taken as HSA as in Table 23
T1 construct: also called HRP-human albumin

[3] = target: T1, human serum albumin (HSA); experiment: as above; remark: listed apart in the source
[4] = target: T1, human serum albumin (HSA); experiment: HSA binding class (+++ 0.7-1.0; ++ 0.4-0.7; + 0.1-0.4)
[5] = target: T1, human serum albumin (HSA); experiment: ABD-Binding Elisa; x axis Protein concentration (ug/ml); albumin taken as HSA as in Table 23
[6] = target: T2, soluble CD32B (sCD32B) (human, UniProt P31994 43-217); experiment: sandwich ELISA: sCD32B coated (sCD32B-Ig, 2 ug/ml), diabody titrated, labelled sCD16A as probe; signal needs both bindings
T2 construct: extracellular domain; also called FcγRIIB; soluble CD32B ectodomain
T2 sequence (looked up): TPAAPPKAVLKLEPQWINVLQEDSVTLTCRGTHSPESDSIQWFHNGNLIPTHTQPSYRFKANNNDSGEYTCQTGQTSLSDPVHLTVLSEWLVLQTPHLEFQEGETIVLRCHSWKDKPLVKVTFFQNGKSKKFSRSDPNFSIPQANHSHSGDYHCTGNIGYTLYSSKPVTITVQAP
Method: The binding of eluted and purified diabodies was characterized by ELISA assay, as described in 5.4.2. 50 ul/well of a 2 ug/ml solution of sCD32B-Ig was coated on 96-well Maxisorp plate in Carbonate buffer at 4° C. over night. The plate was washed three times with PBS-T (PBS, 0.1% Tween 20) and blocked by 0.5% BSA in PBS-T for 30 minutes at room temperature. […] The plate was then incubated at room temperature for 1 hour. After washing with PBS-T three times, 50 ul/well of 0.2 ug/ml sCD16A-Biotin was added to each well. The plate was again incubated at room temperature for 1 hour. After washing with PBS-T three times, 50 ul/well of a 1:5000 dilution of HRP conjugated streptavidin (Amersham Pharmacia Biotech) was used for detection. The HRP-streptavidin was allowed to incubate for 45 minutes at room temperature. The plate was washed with PBS-T three times and developed using 80 ul/well of TMB substrate. After a 10 minute incubation, the HRP-TMB reaction was stopped by adding 40 ul/well of 1% H₂SO₄.

[7] = target: T2, soluble CD32B (sCD32B); experiment: sandwich ELISA on conditioned medium: soluble FcRIIb-G2-Agly coated (100 ng/well), diabody titrated, FcRIIIa-G2-Biotin probe and streptavidin-HRP; signal needs both bindings
Method: After three days in culture, the conditioned medium were harvested and characterized by binding ELISA.
100 ng/well of soluble FcRIIb-G2-Agly was coated on 96-well Maxisorp plate in Carbonate buffer at 40° C. overnight. Plate was washed three times with PBS/0.1% Tween20 and then blocked by 0.5% BSA in PBS/0.1% Tween 20 for 30 mins at room temperature before adding diabodies. […] The plate was incubated at room temperature for 1 hour. After washed with PBS/0.1% Tween20 three times, 10 ng/well of FcRIIIa-G2-Biotin was added to the plate. The plate was incubated at room temperature for 1 hour. After washed with PBS/0.1% Tween20 three times, 50 ul of 1:5000 dilution of HRP conjugated Streptavidin (Amersham Pharmacia Biotech) was used for detection. After 45 minutes incubation at room temperature, the plate was washed with PBS/0.1% Tween20 three times and developed using TMB substrate. After 10 minutes incubation, the reaction was stopped by 1% H2SO4. The OD450 nm was read by SOFTmax program.

[8] = target: T2, soluble CD32B (sCD32B); experiment: SPR sensorgrams with sCD32B; printed under the panel
[9] = target: T1, human serum albumin (HSA); experiment: SPR sensorgrams with HSA; printed under the panel
[10] = target: T3, soluble CD16A (sCD16A) (human, UniProt P08637 17-208); experiment: dual ELISA: CD16A coated, DART titrated, biotinylated sCD32B detection, with 3 mg/ml HSA
T3 construct: extracellular domain; given only as soluble; immobilised in SPR, plate coat or biotin/HRP-labelled probe in ELISA; also called FcγRIIIA; sCD16A-Biotin
T3 sequence (P08637 17-208): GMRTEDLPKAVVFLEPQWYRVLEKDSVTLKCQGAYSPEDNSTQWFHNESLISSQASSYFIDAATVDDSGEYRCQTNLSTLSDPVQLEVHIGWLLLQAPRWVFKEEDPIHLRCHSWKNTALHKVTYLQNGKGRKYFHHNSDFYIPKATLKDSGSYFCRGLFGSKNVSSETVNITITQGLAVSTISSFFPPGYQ

[11] = target: T3, soluble CD16A (sCD16A); experiment: dual ELISA: CD16A coated, DART titrated, biotinylated sCD32B detection, without HSA
[12] = target: T4, soluble CD16A(158F) (human, UniProt P08637 17-208); experiment: SPR sensorgrams with sCD16A (158F per paragraph 834); printed under the panel
T4 construct: extracellular domain; also called CD16A(F158); sCD16A
T4 sequence (P08637 17-208): as above

[13] = target: T2, soluble CD32B (sCD32B); experiment: SPR (BIAcore), receptor immobilised
[14] = target: T5, soluble CD32A (sCD32A) (UniProt P12318 34-217, limits assumed); experiment: SPR (BIAcore): sCD32A (negative control) immobilised, diabody injected for 60 s
T5 construct: extracellular domain; also called sCD32A (negative control)
T5 sequence (looked up): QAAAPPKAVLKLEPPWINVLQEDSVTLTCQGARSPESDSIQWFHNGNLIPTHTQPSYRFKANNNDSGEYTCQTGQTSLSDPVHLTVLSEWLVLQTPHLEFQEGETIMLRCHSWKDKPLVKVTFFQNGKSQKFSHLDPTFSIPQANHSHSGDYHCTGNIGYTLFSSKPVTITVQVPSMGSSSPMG

[15] = target: T3, soluble CD16A (sCD16A); experiment: SPR (BIAcore): sCD16 immobilised, diabody injected for 60 s
[16] = target: T3, soluble CD16A (sCD16A); experiment: sandwich ELISA on conditioned medium: soluble FcRIIb-G2-Agly coated, FcRIIIa-G2-Biotin probe and streptavidin-HRP
[17] = target: T2, soluble CD32B (sCD32B); experiment: as above

Sequence of soluble CD16A (sCD16A) (human) (P08637 17-208): as the sequence (P08637 17-208) above

## h3G8 scFv
[1]
  Kd: 38.7 nM

## LAEAKVLANRELDKYGVSDYYKNLADNAKTVEGVKALIDEILAALP (other, also called 65A/66D) [ABD3 I65A/N66D]
[2]
  binding result: binds

## LAEAKVLANRELDKYGVSDYYKNAANNAKTVEGVKALIDEILAALP (other, also called 64A/65A) [ABD3 L64A/I65A]
[3]
  binding result: binds

## LAEAKVLANRELDKYGVSDYYKNAANNAKTAEGVKALIDEILAALP (other, also called 64A/65A/71A) [ABD3 L64A/I65A/V71A (ABD (AAA))]
[4]
  HSA binding: 0.4 to 0.7

## LAEAKVLANRELDKYGVSDYYKNAIDNAKTVEGVKALIDEILAALP (other, also called 64A/66D) [ABD3 L64A/N66D]
[3]
  binding result: binds

## LAEAKVLANRELDKYGVSDYYKNLISNAKTVEGVKALIDEILAALP (other) [ABD3 N66S]
[5]
  binding result: binds

## LAEAKVLANRELDKYGVSDYYKNLINNAKSVEGVKALIDEILAALP (other) [ABD3 T70S]
[4]
  HSA binding: 0.7 to 1

## LAEAKVLANRELDKYGVSDYAKNLIDNAKTVEGVKALIDEILAALP (other, also called 61A/66D) [ABD3 Y61A/N66D]
[3]
  binding result: binds

## LAEAKVLANRELDKYGVSDYAKNLISNAKTVEGVKALIDEILAALP (other, also called 61A/66S) [ABD3 Y61A/N66S]
[5]
  binding result: binds

## LAEAKVLANRELDKYGVSDYAKNLINNAKSVEGVKALIDEILAALP (other) [Y61A/T70S]
[5]
  binding result: binds

B1: h2B6-h3G8 covalent bispecific diabody (CBD) (bispecific antibody)
chain 1: EIVLTQSPDFQSVTPKEKVTFTCRTSQSIGTNIHWYQQKPDQSPKLLIKEVSESISGVPSRFSGSGSGTDFTLTINSLEAEDAATYYCQQSNTWPFTFGGGTKVEIKGGGSGGGGQVTLRESGPALVKPTQTLTLTCTFSGFSLSTSGMGVGWIRQPPGKALEWLAHIWWDDDKRYNPALKSRLTISKDTSKNQVVLTMTNMDPVDTATYYCAQINPAWFAYWGQGTLVTVSSLGGC
chain 2: DIVMTQSPDSLAVSLGERATINCKASQSVDFDGDSFMNWYQQKPGQPPKLLIYTTSNLESGVPDRFSGSGSGTDFTLTISSLQAEDVAVYYCQQSNEDPYTFGQGTKLEIKGGGSGGGGQVQLVQSGAEVKKPGASVKVSCKASGYTFTNYWIHWVRQAPGQGLEWIGVIDPSDTYPNYNKKFKGRVTMTVVVSTSTAYMELRSLRSDDTAVYYCARNGDSDYYSGMDYWGQGTTVTVSSLGGC
notes: covalent heterodimer of constructs 1 and 2; also called h2B6-h3G8 CBD; h2B6-h3G8 diabody
[6]
  EC50 (read off the curve): ~0.05 µg/mL

B2: Hu2B6 4.5-Hu3G8 5.1 (bispecific antibody)
chain 1: B1 chain 2
chain 2: B1 chain 1
modifications: the two chains are joined by a disulfide between their C-terminal LGGC cysteines
notes: tested as conditioned medium of HEK-293 cells; also called Hu2B6 4.5-Hu3G8 5.1 biospecific diabody
[7]
  EC50 (read off the curve): ~0.05 µg/mL

B3: hCD16-hCD32B ABD-DART (bispecific antibody)
chain 1: DIVMTQSPDSLAVSLGERATINCKASQSVDFDGDSFMNWYQQKPGQPPKLLIYTTSNLESGVPDRFSGSGSGTDFTLTISSLQAEDVAVYYCQQSNEDPYTFGQGTKLEIKGGGSGGGGQVQLVQSGAEVKKPGASVKVSCKASGYTFTNYWIHWVRQAPGQGLEWIGVIDPSDTYPNYNKKFKGRVTMTVVVSTSTAYMELRSLRSDDTAVYYCARNGDSDYYSGMDYWGQGTTVTVSSGGCGGGKVAALKEKVAALKEKVAALKEKVAALKEGGGNS
chain 2: EIVLTQSPDFQSVTPKEKVTFTCRTSQSIGTNIHWYQQKPDQSPKLLIKEVSESISGVPSRFSGSGSGTDFTLTINSLEAEDAATYYCQQSNTWPFTFGGGTKVEIKGGGSGGGGQVTLRESGPALVKPTQTLTLTCTFSGFSLSTSGMGVGWIRQPPGKALEWLAHIWWDDDKRYNPALKSRLTISKDTSKNQVVLTMTNMDPVDTATYYCAQINPAWFAYWGQGTLVTVSSGGCGGGEVAALEKEVAALEKEVAALEKEVAALEKGGGNSLAEAKVLANRELDKYGVSDYYKNLINNAKTVEGVKALIDEILAALP
notes: also called DART ABD fusion; hCD16-hCD32B EK ABD-DART
[8]
  Kd: 30 nM
  koff: 0.0072 s⁻¹
  kon: 240000 M⁻¹ s⁻¹
[9]
  Kd: 7.1 nM
  koff: 0.00064 s⁻¹
  kon: 90000 M⁻¹ s⁻¹
[10]
  EC50 (read off the curve): ~0.06 µg/mL
[11]
  EC50 (read off the curve): ~0.05 µg/mL
[12]
  Kd: 137 nM
  koff: 0.052 s⁻¹
  kon: 380000 M⁻¹ s⁻¹

B4: h2B6 covalent monospecific diabody (CMD) (other)
chain: EIVLTQSPDFQSVTPKEKVTFTCRTSQSIGTNIHWYQQKPDQSPKLLIKEVSESISGVPSRFSGSGSGTDFTLTINSLEAEDAATYYCQQSNTWPFTFGGGTKVEIKGGGSGGGGQVQLVQSGAEVKKPGASVKVSCKASGYTFTNYWIHWVRQAPGQGLEWIGVIDPSDTYPNYNKKFKGRVTMTVVVSTSTAYMELRSLRSDDTAVYYCARNGDSDYYSGMDYWGQGTTVTVSSLGGC
modifications: covalent homodimer: two copies of this chain, disulfide-linked through the C-terminal LGGC cysteine
notes: covalent homodimer; also called h2B6 CMD; h2B6 diabody
[13]
  Kd: 21 nM
[14]
  binding result: no binding (tested: 100 nM)
[15]
  binding result: no binding (tested: 100 nM)

B5: Hu2B6 4.5 (other)
chain 1: B4 chain
chain 2: B4 chain
modifications: homodimer of two identical chains, joined by a disulfide between the C-terminal LGGC cysteines
notes: monospecific diabody, conditioned medium; also called Hu2B6 4.5 diabody
[16]
  binding result: no binding (tested: 0.5 ug/ml)

B6: Hu3G8 5.1 (other)
chain 1: DIVMTQSPDSLAVSLGERATINCKASQSVDFDGDSFMNWYQQKPGQPPKLLIYTTSNLESGVPDRFSGSGSGTDFTLTISSLQAEDVAVYYCQQSNEDPYTFGQGTKLEIKGGGSGGGGQVTLRESGPALVKPTQTLTLTCTFSGFSLSTSGMGVGWIRQPPGKALEWLAHIWWDDDKRYNPALKSRLTISKDTSKNQVVLTMTNMDPVDTATYYCAQINPAWFAYWGQGTLVTVSSLGGC
chain 2: B6 chain 1
modifications: homodimer of two identical chains, joined by a disulfide between the C-terminal LGGC cysteines
notes: monospecific diabody, conditioned medium; also called Hu3G8 5.1 diabody
[17]
  binding result: no binding (tested: 0.5 ug/ml)
